Patent US20250270328A1 (BRIGHAM AND WOMEN S HOSPITAL, published 2025)

T1: human KLRB1 expressed on CHO-K1 cells (CHO-hum-KLRB1) (human, UniProt Q12918 1-225)
T1 sequence: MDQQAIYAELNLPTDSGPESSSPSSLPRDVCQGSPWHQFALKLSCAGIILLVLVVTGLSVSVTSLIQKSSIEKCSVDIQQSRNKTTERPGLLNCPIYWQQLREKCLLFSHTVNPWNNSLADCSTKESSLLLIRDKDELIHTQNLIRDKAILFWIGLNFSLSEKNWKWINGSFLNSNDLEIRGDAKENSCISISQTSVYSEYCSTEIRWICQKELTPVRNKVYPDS

T2: human KLRB1 protein extracellular domain (ECD) (human, UniProt Q12918 67-225)
T2 construct: range 67-225; The ELISA and SPR text says only 'human KLRB1 ECD'; also called human KLRB1 ECD; CD161
T2 sequence (looked up): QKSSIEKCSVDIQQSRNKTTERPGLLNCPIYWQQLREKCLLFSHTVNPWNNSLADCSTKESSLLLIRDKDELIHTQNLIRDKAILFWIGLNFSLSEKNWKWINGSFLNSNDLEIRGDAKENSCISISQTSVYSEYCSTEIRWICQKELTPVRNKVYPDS


Key:
[1] = molecular target: T1, human KLRB1 expressed on CHO-K1 cells …; assay: cell-based or functional assay
[2] = molecular target: T2, human KLRB1 protein extracellular …; assay: SPR, human KLRB1 ECD; format not stated
Protocol: The chimeric antibody 10A3D6-hIgGlk (a mouse/human chimeric antibody with 10A3D6 variable regions and human IgG1-kappa constant regions), chimeric mutated variants (10A3D6C109S, 10A3D6C109F, and 10A3D6C109V), and humanized variants of 10A3D6 created by CDR grafting (Almagro et al. 2008) were assayed for binding against human KLRB1 extracellular domain (ECD) via surface plasma resonance (SPR).

Kd [2] | koff [2] | kon [2] | Binder | ADCC target cell killing EC50 (flow cytometry, human NK cells) [1]
– | – | – | 10A3D6hum2.2-afuc (afucosylated 10A3D6hum2.2) (antibody, human IgG1, kappa, V domains shown, Fc N-glycan afucosylated (produced in FUT8 knockout cells). The amino-acid letters are unchanged from 10A3D6hum2.2.) VH: QVQLVQSGAEVKKPGASVKVSCKASGYSFTGYTMNWVRQAPGQNLEWIGLINPNTGGTYYNQKFKDRVTLTVDTSISTAYMELSRLRSDDTAVYYCARLGDNYRGYFDSWGQGTTVTVSS VL: DIQLTQSPSFLSASVGDRVTITCKASQDVGTAVVWYQQKPGKAPKLLIDWASIRHTGVPSRFSGSGSGTEFTLTISSLQPEDFADYFCQQYSTYLYTFGGGTKLEIKR | 0.01 nM
0.131 nM | 0.000139 s⁻¹ | 1.07e+06 M⁻¹ s⁻¹ | 10A3D6hum2.2 (antibody, human IgG1, kappa, V domains shown, copies: 2 + 2) VH: QVQLVQSGAEVKKPGASVKVSCKASGYSFTGYTMNWVRQAPGQNLEWIGLINPNTGGTYYNQKFKDRVTLTVDTSISTAYMELSRLRSDDTAVYYCARLGDNYRGYFDSWGQGTTVTVSS VL: DIQLTQSPSFLSASVGDRVTITCKASQDVGTAVVWYQQKPGKAPKLLIDWASIRHTGVPSRFSGSGSGTEFTLTISSLQPEDFADYFCQQYSTYLYTFGGGTKLEIKR | –
0.172 nM | 0.000191 s⁻¹ | 1.11e+06 M⁻¹ s⁻¹ | 10A3D6-hIgG1k (mouse/human chimeric antibody with 10A3D6 variable regions and human IgG1-kappa constant regions) (antibody, also called 10A3D6-chimeric; 10A3D6-hIgGlk; copies: 2 + 2) heavy: not shown light: DIVMTQSHKFMSTSVGDRVNITCKASQDVGTAVVWYQQTPGQSPKVLIDWASIRHTGVPDRFTGSGSGTDFTLTISSVQSEDLADYFCQQYSTYLYTFGGGTKLEIKRTVAAPSVFIFPPSDEQLKSGTASVVCLLNNFYPREAKVQWKVDNALQSGNSQESVTEQDSKDSTYSLSSTLTLSKADYEKHKVYACEVTHQGLSSPVTKSFNRGEC | –
